Here are results for 72 sequences from the supplement of paper PMC10567573.

This series can be described thus: protein stability index of a GFP-peptide fusion (GPS, HEK-293T) (PSI 1-6); higher = more stable.
The mark [1] stands for this setting: treatment: DMSO, c terminus: a fixed tail appended.
[2] abbreviates: treatment: MLN4924 1 uM, 8 h, c terminus: a fixed tail appended.

± gives the standard deviation.
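Note: 24-mer peptide tiles fused after GFP, lentivirally expressed, FACS-sorted into six equal bins by GFP/DsRed ratio, decoded by Illumina sequencing, PSI is the read-weighted mean bin number.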

Take GCQPEDRRRRIIINVGGIKYSLPW [KCNG1]: the protein stability index is, setting by setting: under setting [1], 2.36 ± 0.52; under setting [2], 2.5 ± 0.44.
For YPHTRIQSLVSILRTTVHHAFPVV [CLCN6], the protein stability index runs as follows: under setting [1], 2.42 ± 0.57; under setting [2], 2.14 ± 0.15.
As to ARSAASYMLFDPKDSVMQQNLVYY [P3H4], the protein stability index was determined as 2.28 ± 0.48 under setting [1] and 2.08 ± 0.45 under setting [2].
Regarding EERRVVHASGDASYSAGDSGDAAA [EPB41L3], the protein stability index is, setting by setting: under setting [1], 5.49 ± 0.32; under setting [2], 5.42 ± 0.17.
In the same order, the values of SVFSARDRDPNSLLISCAVSYRGA [TNXB] are 2.4 ± 0.22 and 2.06 ± 0.16.
In the same order, the values of SLGKTNVKDDELDAMLKEASGPIN [MYL5] are 5.14 ± 0.26 and 5.35 ± 0.16.
Take SRSPLKIVKKPKSMQCKVILLDGS [EPB41L3]: the protein stability index is, setting by setting: under setting [1], 2.52 ± 0.081; under setting [2], 2.51 ± 0.29.
For TYWEHWTSQGQVRMRLFGQRCQKC [RTP4], in that order: 2.33 ± 0.43 and 2.72 ± 0.57.
In the same order, the values of DQVMEFSWSALWNITDETPDNCEM [ZER1] are 4.12 ± 0.27 and 4.04 ± 0.5.
In the same order, the values of SDAGSPSLHKHLTIRLNISDVNDN [PCDHGC5] are 3.73 ± 0.17 and 3.71 ± 0.24.
On to PLQLLREMRQALQALLKENRLLQE [CBY2], for which the protein stability index is, setting by setting: under setting [1], 2.93 ± 0.28; under setting [2], 3.4 ± 0.51.
In the same order, the values of GIFLFCVCVIAIGVVQALIVGYAF [TMEM175] are 2.6 ± 0.56 and 2.33 ± 0.56.
In the same order, the values of ELEKNFSNFPRQYFALRKILKQLI [TRIM39] are 2.58 ± 0.92 and 2.85 ± 1.3.
In the same order, the values of AIPIKSWFSDPSDTALLNLLPMLD [CTDNEP1] are 2.33 ± 0.16 and 2.47 ± 0.3.
Turning to LDISDSISESGGLNWKMTLCLLVA [SLC6A17], the protein stability index under setting [1] stood at 2.54 ± 0.48 and the protein stability index under setting [2] worked out at 2.5 ± 0.79.
Consider TIAAIDGLALGGGLELALACDIRV [AUH], for which the protein stability index runs as follows: under setting [1], 2.39 ± 1.2; under setting [2], 2.33 ± 0.59.
In the same order, the values of RNTHKDLLRFAQVFSQMIHLNETV [FEM1B] are 2.74 ± 0.7 and 2.34 ± 0.48.
For MVPGTRHSAVLRDLRSGTLYSLTL [TNXB], in that order: 2.91 ± 0.58 and 2.03 ± 0.52.
In the same order, the values of GISNALHRLKLRLAIQEMVSLTSP [PPFIA4] are 2.46 ± 0.22 and 2.18 ± 0.13.
In the case of VINPMLNPIIYSFRNPDVQSAIWR [OR3A1], the protein stability index was 2.06 ± 0.51 under setting [1] and 2.24 ± 0.19 under setting [2].
In the same order, the values of GSYTVQSELGDYDPDECGSDYISE [EPB41L3] are 4.83 ± 0.48 and 5.2 ± 0.22.
With RQSSVTESTLYPNPYHQPYISRKY [TPRG1], the protein stability index turned out to be 3.44 ± 0.31 under setting [1] and 3.67 ± 0.23 under setting [2].
Take AVLLQLYVATEAILIALVGATPSY [SLC22A15]: the protein stability index was 3.33 ± 0.37 under setting [1] and 3.26 ± 0.52 under setting [2].
For LYRDVMLETFGHLLSIGPELPKPE [ZNF8], in that order: 2.26 ± 0.27 and 2.56 ± 0.46.
In the case of EMHTALMEACMDGHVEVARLLLDS [ANKRD17], the protein stability index by setting is: under setting [1], 2.38 ± 0.22; under setting [2], 2.55 ± 0.28.
For AALNMSLGMVTPVNDLRGSDSIAY [ADD1], in that order: 2.48 ± 0.37 and 2.62 ± 0.22.
In the same order, the values of MENKAMYLHTVSDCDTSSICEDSF [SCARA5] are 4.46 ± 0.17 and 4.49 ± 0.22.
In the same order, the values of PPPARGRGAPPPPPSRAPTAAPPP [WASL] are 5.26 ± 0.11 and 5.14 ± 0.21.
SKAFLLQTVDGKHQDLKYISPETM [CDC25B]: the protein stability index was found to be 3.22 ± 0.098 under setting [1] and 3.37 ± 0.29 under setting [2].
For LEAAEVILEHAHRGEQTTSQVSWE [FCHSD1], in that order: 3.63 ± 0.58 and 4.25 ± 0.79.
For the sequence TPRGPDPALLEATGGAAGAGGAGR [KCTD13], the protein stability index was 5.13 ± 0.23 under setting [1] and 5.18 ± 0.21 under setting [2].
Regarding GTDLPLSEIPRGVRVALDYEAGQV [TRIM15], the protein stability index was found to be 4.33 ± 0.25 under setting [1] and 4.46 ± 0.22 under setting [2].
In the same order, the values of IFEETLNILIYETPRGPDPALLEA [KCTD13] are 2.47 ± 0.51 and 2.63 ± 0.28.
In turn, PLHLAAQRGHYRVARILIDLCSDV [RIPK4] displayed a protein stability index under setting [1] of 2.42 ± 0.44 and a protein stability index under setting [2] of 2.31 ± 0.19.
For MSREPTPPLPGDMSTGPIAESWCY [SPOPL], the protein stability index runs as follows: under setting [1], 3.29 ± 0.32; under setting [2], 3.37 ± 0.47.
In the same order, the values of YQQLCIYWTKYYDFKNPIIEKYLR [OAS1] are 2.92 ± 0.53 and 2.46 ± 0.7.
As to KSRRKAALSSPRSRKNATQPPNAE [INTS3], the protein stability index stood at 5.08 ± 0.33 under setting [1] and 4.98 ± 0.39 under setting [2].
Consider ILQDQEHIFAHRIYLATSSSKFYD [RHOBTB1], for which the protein stability index worked out at 2.15 ± 0.35 under setting [1] and 2.4 ± 0.16 under setting [2].
For SPGSPVGEGTGSPPKWQIGEQEFE [ADD1], in that order: 5.35 ± 0.14 and 5.35 ± 0.25.
Regarding VTVSDASWVSELLWSLFVPFTVYQ [AUP1], the protein stability index under setting [1] is 2.87 ± 0.55 and the protein stability index under setting [2] was found to be 3.14 ± 0.47.
For LALRGRLQLEACGMRRKSLLTRKV [GOLPH3], in that order: 2.26 ± 0.13 and 2.41 ± 0.21.
For FGMAKIDNLLQEMLLGGSPSDAPH [HNF4A], in that order: 2.8 ± 0.25 and 2.76 ± 0.28.
In the same order, the values of PIPVVFVLRHFHLLSDGSNTLSVS [SLC6A17] are 2.83 ± 0.81 and 2.84 ± 0.47.
MPVICGPEENYPSLQMSSAEMPHT [NANOGP8]: the protein stability index was 4.47 ± 0.32 under setting [1] and 4.39 ± 0.24 under setting [2].
Turning to WLAVDGLVSPSNNSKEDAFSGTDW [ATF4], the protein stability index was determined as 3.76 ± 0.19 under setting [1] and 3.76 ± 0.27 under setting [2].
For the sequence SSTLVRPIRSRRALPPLRTRSKSD [FAM189A2], the protein stability index was 4.65 ± 0.31 under setting [1] and 4.6 ± 0.084 under setting [2].
In the same order, the values of NSSGDIGKKEIKPFKRFLRKKSKP [SMOC2] are 4.15 ± 0.4 and 4.19 ± 0.68.
In the same order, the values of AQAAVQGPVGTDFKPLNSTPATTT [ZNF207] are 4.81 ± 0.24 and 4.89 ± 0.26.
For the sequence VVYSCVEGKMYTARKGKGAFCNGQ [IMPA1], the protein stability index under setting [1] turned out to be 2.33 ± 0.27 and the protein stability index under setting [2] worked out at 2.36 ± 0.13.
TEEEDRIICEAHKVLGNRWAEIAK [MYBL2]: the protein stability index under setting [1] turned out to be 3.85 ± 0.1 and the protein stability index under setting [2] is 3.92 ± 0.46.
For the sequence ILTRSWEEVSTLNAQIPELKSDLE [CD207], the protein stability index is, setting by setting: under setting [1], 3.56 ± 0.28; under setting [2], 3.78 ± 0.16.
For RMEKGEPYMSIQPAEDPDDYDDGF [SMARCE1], the protein stability index under setting [1] was 5.61 ± 0.076 and the protein stability index under setting [2] is 5.54 ± 0.27.
As for RDIQDENQLLVADVKRLGKQNARF [STX11], the protein stability index by setting is: under setting [1], 4.21 ± 0.32; under setting [2], 4.44 ± 0.18.
Consider IDKVRFLEQQNQVLETKWELLQQL [KRT71], for which the protein stability index reads like this: under setting [1], 2.74 ± 0.1; under setting [2], 2.73 ± 0.27.
On to FEMLSGFPPFFDDNPFGIYQKILA [PRKX], for which the protein stability index under setting [1] turned out to be 2.47 ± 0.45 and the protein stability index under setting [2] worked out at 2.29 ± 0.3.
Consider KTTQEAEKLLERQGQAKTPDSMFL [CDK11A], for which the protein stability index worked out at 4.68 ± 0.28 under setting [1] and 4.73 ± 0.2 under setting [2].
Consider AKREETKAMESQRAYRFVQGKDWG [SPOPL], for which the protein stability index under setting [1] is 3.09 ± 0.61 and the protein stability index under setting [2] is 3.59 ± 0.37.
With TRRRAVGWWKRLFTLKEEKPKMYF [ARL6IP1], the protein stability index was found to be 2.25 ± 0.39 under setting [1] and 2.11 ± 0.32 under setting [2].
For SSRSSEESSSDSGSSDSEEERATR [BRD3], in that order: 5.06 ± 0.33 and 5.08 ± 0.2.
In the same order, the values of PLSPIQASSVHLKSESSLPHQTSK are 5.02 ± 0.19 and 5.05 ± 0.088.
As for SVRRTRSKIGFGILLSKEPDGVWA [SMAD6], the protein stability index runs as follows: under setting [1], 2.18 ± 0.12; under setting [2], 2.3 ± 0.12.
For the sequence PGEDENPEKASELSQVELQAAPGA [TRIM55], the protein stability index runs as follows: under setting [1], 5.56 ± 0.27; under setting [2], 5.72 ± 0.2.
In the case of DDFRSKYQTEQSLRLLVESDINSI [KRT34], the protein stability index by setting is: under setting [1], 3.77 ± 0.098; under setting [2], 3.94 ± 0.27.
For the sequence KSHLIFPQPNYADTLISQESCEKN [PCDHGA10], the protein stability index under setting [1] was 4.32 ± 0.17 and the protein stability index under setting [2] worked out at 4.32 ± 0.21.
Take DQPVMAVKTGEDGSNLDDAKGLAE [FANCE]: the protein stability index under setting [1] is 5.44 ± 0.14 and the protein stability index under setting [2] stood at 5.51 ± 0.26.
In the same order, the values of SPSVMRLVHTQEPGEWLELLLEPG [ALKBH7] are 2.83 ± 0.23 and 3 ± 0.24.
For EAEEEELRAELTKVEEEIVTLRQV [TPD52L2], the protein stability index by setting is: under setting [1], 4.25 ± 0.26; under setting [2], 4.63 ± 0.51.
As to LFYKPGIVLLLALAKYLKMNNFL [GULP1], the protein stability index (treatment: DMSO, c terminus: native) came to 2.87 ± 0.92 and the protein stability index (treatment: MLN4924 1 uM, 8 h, c terminus: native) was 2.87 ± 0.91.
For the sequence RPEGYNLKDEEGKLKDLSTVTSLQ [PPP2R2C], the protein stability index is 5.12 ± 0.23 under setting [1] and 5.29 ± 0.17 under setting [2].
Consider RGPPHGWPKLCPCLRSGIGSSQAL [MYCL], for which the protein stability index by setting is: under setting [1], 2.21 ± 0.65; under setting [2], 2.26 ± 0.5.
Regarding IALFTARLHHPHKSVQHVVLQALF [PTPN9], the protein stability index was 2.59 ± 0.54 under setting [1] and 3.13 ± 0.72 under setting [2].
VGVATARAPLHSVGYTALVGSDAE [SPSB4]: the protein stability index reads like this: under setting [1], 4.35 ± 0.19; under setting [2], 4.38 ± 0.3.
